Test results reported in article PMC5497784 (Cell metabolism, 2017).

Molecular target: the molecule itself
Assay: cross-linking

B1: IRE1α* (cytosolic kinase and RNase domains of human IRE1α, residues 469-977) (domain or fragment, UniProt O75460 469-977, looked up)
chain: HQQQQLQHQQFQKELEKIQLLQQQQQQLPFHPPGDTAQDGELLDTSGPYSESSGTSSPSTSPRASNHSLCSGSSASKAGSSPSLEQDDGDEETSVVIVGKISFCPKDVLGHGAEGTIVYRGMFDNRDVAVKRILPECFSFADREVQLLRESDEHPNVIRYFCTEKDRQFQYIAIELCAATLQEYVEQKDFAHLGLEPITLLQQTTSGLAHLHSLNIVHRDLKPHNILISMPNAHGKIKAMISDFGLCKKLAVGRHSFSRRSGVPGTEGWIAPEMLSEDCKENPTYTVDIFSAGCVFYYVISEGSHPFGKSLQRQANILLGACSLDCLHPEKHEDVIARELIEKMIAMDPQKRPSAKHVLKHPFFWSLEKQLQFFQDVSDRIEKESLDGPIVKQLERGGRAVVKMDWRENITVPLQTDLRKFRTYKGGSVRDLLRAMRNKKHHYRELPAEVRETLGSLPDDFVCYFTSRFPHLLAHTYRAMELCSHERLFQPYYFHEPPEPQPPVTPDAL
binding result: binds
